test system: Escherichia coli TOP10; assay: shrunken log2 fold change of peptide-encoding DNA abundance (4.5 h post-induction vs induction); higher = less antimicrobial activity (less host growth inhibition); conditions: time post-induction: 4.5 h; library: site-saturation at positions 5, 18, 19, 20
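Note: peptides expressed intracellularly from a pBAD plasmid library in pooled LB shake-flask culture, induced with 0.3% L-arabinose, DNA abundance read by NGS, three biological replicates, DESeq2 with apeglm shrinkage.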

Sequence	shrunken log2 fold change
RRIRMRPPRLPRPRPRPGQVPRP	0.418
RRIRSRPPRLPRPRPRPQMEPRP	0.0832
RRIRPRPPRLPRPRPRPFPYPRP	-0.0798
RRIRNRPPRLPRPRPRPIWIPRP	-0.0856
RRIRTRPPRLPRPRPRPRFYPRP	-0.367
RRIRPRPPRLPRPRPRPLEHPRP	-0.565
RRIRERPPRLPRPRPRPDDKPRP	-0.433
RRIRQRPPRLPRPRPRPNQPPRP	-0.0757
RRIRSRPPRLPRPRPRPRWKPRP	0.206
RRIRHRPPRLPRPRPRPCSLPRP	-0.115
RRIRYRPPRLPRPRPRPMGDPRP	-0.0018
RRIRRRPPRLPRPRPRPIVSPRP	-0.221
RRIRYRPPRLPRPRPRPSSLPRP	-0.0385
RRIRDRPPRLPRPRPRPMRQPRP	0.0681
RRIRDRPPRLPRPRPRPMGCPRP	-0.000921
RRIRPRPPRLPRPRPRPVMMPRP	3.4
RRIRIRPPRLPRPRPRPKRVPRP	0.0424
RRIRMRPPRLPRPRPRPTLWPRP	0.968
RRIRHRPPRLPRPRPRPFMRPRP	-0.42
RRIRIRPPRLPRPRPRPYYPPRP	-1.36
RRIRKRPPRLPRPRPRPVSSPRP	0.00728
RRIRYRPPRLPRPRPRPLKHPRP	-1.82
RRIRQRPPRLPRPRPRPMISPRP	-0.0269
RRIRDRPPRLPRPRPRPLMYPRP	-0.00328
RRIRDRPPRLPRPRPRPGHMPRP	-0.0968

Sequence	shrunken log2 fold change
RRIRCRPPRLPRPRPRPRAGPRP	0.472
RRIRHRPPRLPRPRPRPERYPRP	-0.0389
RRIRMRPPRLPRPRPRPKMTPRP	2.7
RRIRNRPPRLPRPRPRPIATPRP	-0.0576
RRIRKRPPRLPRPRPRPMMFPRP	-0.0431
RRIRRRPPRLPRPRPRPNGAPRP	-0.151
RRIRARPPRLPRPRPRPKYWPRP	0.233
RRIRKRPPRLPRPRPRPNFTPRP	0.156
RRIRCRPPRLPRPRPRPFLWPRP	-0.119
RRIRGRPPRLPRPRPRPMAWPRP	0.743
RRIRMRPPRLPRPRPRPNHKPRP	-0.391
RRIRPRPPRLPRPRPRPSYSPRP	-0.149
RRIRTRPPRLPRPRPRPCDEPRP	-0.0429
RRIRPRPPRLPRPRPRPLKLPRP	-0.267
RRIRYRPPRLPRPRPRPPDLPRP	-0.212
RRIRCRPPRLPRPRPRPWADPRP	-0.0237
RRIRNRPPRLPRPRPRPADEPRP	-0.00151
RRIRCRPPRLPRPRPRPLRPPRP	0.815
RRIRVRPPRLPRPRPRPWHFPRP	-0.0232
RRIRKRPPRLPRPRPRPQETPRP	-0.0167
RRIRPRPPRLPRPRPRPDGKPRP	0.25
RRIRGRPPRLPRPRPRPHVDPRP	0.0583
RRIRKRPPRLPRPRPRPVKGPRP	0.322
RRIRWRPPRLPRPRPRPNFNPRP	-0.198
RRIRERPPRLPRPRPRPQMQPRP	-0.173

Sequence	shrunken log2 fold change
RRIRRRPPRLPRPRPRPWVRPRP	-0.0986
RRIRYRPPRLPRPRPRPEQGPRP	-0.00197
RRIRGRPPRLPRPRPRPFGMPRP	0.228
RRIRVRPPRLPRPRPRPIYPPRP	-0.413
RRIRHRPPRLPRPRPRPLDWPRP	0.393
RRIRGRPPRLPRPRPRPMDFPRP	0.213
RRIRNRPPRLPRPRPRPEGWPRP	0.68
RRIRERPPRLPRPRPRPITPPRP	-0.628
RRIRQRPPRLPRPRPRPDAQPRP	-9.3e-05
RRIRERPPRLPRPRPRPGKSPRP	-0.00212
RRIRHRPPRLPRPRPRPDLRPRP	0.0039
RRIRSRPPRLPRPRPRPLLVPRP	0.0795
RRIRDRPPRLPRPRPRPQYNPRP	-0.446
RRIRARPPRLPRPRPRPDEPPRP	0.0489
RRIRVRPPRLPRPRPRPMAGPRP	-0.00674
RRIRLRPPRLPRPRPRPVLAPRP	0.104
RRIRGRPPRLPRPRPRPEGCPRP	1.65
RRIRMRPPRLPRPRPRPHHVPRP	-0.143
RRIRCRPPRLPRPRPRPDWHPRP	-0.358
RRIRGRPPRLPRPRPRPQWEPRP	0.0931
RRIRARPPRLPRPRPRPKTHPRP	0.227
RRIRLRPPRLPRPRPRPGSCPRP	0.0403
RRIRRRPPRLPRPRPRPSFIPRP	-0.391
RRIRKRPPRLPRPRPRPQRIPRP	0.0286
RRIRNRPPRLPRPRPRPCCAPRP	-0.0874

Sequence	shrunken log2 fold change
RRIRMRPPRLPRPRPRPTSFPRP	0.347
RRIRLRPPRLPRPRPRPIFYPRP	-0.223
RRIRTRPPRLPRPRPRPGIQPRP	0.131
RRIRQRPPRLPRPRPRPIVTPRP	-0.364
RRIRCRPPRLPRPRPRPWHVPRP	-0.259
RRIRKRPPRLPRPRPRPPTVPRP	0.266
RRIRRRPPRLPRPRPRPILDPRP	0.0526
RRIRHRPPRLPRPRPRPEDSPRP	0.0648
RRIRYRPPRLPRPRPRPYYAPRP	-0.634
RRIRMRPPRLPRPRPRPKFFPRP	0.0606
RRIRARPPRLPRPRPRPDIDPRP	0.462
RRIRMRPPRLPRPRPRPYIPPRP	-1.28
RRIRARPPRLPRPRPRPKCKPRP	0.278
RRIRGRPPRLPRPRPRPLTTPRP	1.82
RRIRMRPPRLPRPRPRPHSIPRP	0.0955
RRIRKRPPRLPRPRPRPNQTPRP	0.00514
RRIRWRPPRLPRPRPRPESFPRP	0.528
RRIRKRPPRLPRPRPRPIEVPRP	0.287
RRIRQRPPRLPRPRPRPADVPRP	0.0705
RRIRWRPPRLPRPRPRPWVWPRP	0.0506
RRIRPRPPRLPRPRPRPIGPPRP	0.162
RRIRIRPPRLPRPRPRPEDTPRP	0.0265
RRIRLRPPRLPRPRPRPPESPRP	0.367
RRIRTRPPRLPRPRPRPDENPRP	0.0019
RRIRQRPPRLPRPRPRPKPNPRP	0.301

Sequence	shrunken log2 fold change
RRIRKRPPRLPRPRPRPLPFPRP	-0.11
RRIRHRPPRLPRPRPRPDELPRP	-0.000777
RRIRARPPRLPRPRPRPFLVPRP	-0.205
RRIRVRPPRLPRPRPRPWVNPRP	0.0119
RRIRSRPPRLPRPRPRPECEPRP	-0.0828
RRIRARPPRLPRPRPRPPPDPRP	1.18
RRIRTRPPRLPRPRPRPFSHPRP	-0.399
RRIRQRPPRLPRPRPRPCYYPRP	-0.265
RRIRYRPPRLPRPRPRPMPHPRP	-0.202
RRIRMRPPRLPRPRPRPGCWPRP	0.984
RRIRMRPPRLPRPRPRPKRKPRP	2.32
RRIRDRPPRLPRPRPRPCGKPRP	0.2
RRIRWRPPRLPRPRPRPSREPRP	0.807
RRIRLRPPRLPRPRPRPHQVPRP	0.00465
RRIRWRPPRLPRPRPRPMPWPRP	0.0161
RRIRIRPPRLPRPRPRPHMSPRP	-0.109
RRIRNRPPRLPRPRPRPLMEPRP	-0.0667
RRIRIRPPRLPRPRPRPICNPRP	-0.607
RRIRHRPPRLPRPRPRPDPWPRP	0.0282
RRIRPRPPRLPRPRPRPFFVPRP	0.064
RRIRIRPPRLPRPRPRPSKLPRP	-1.04
RRIRERPPRLPRPRPRPREGPRP	0.46
RRIRVRPPRLPRPRPRPWPSPRP	0.143
RRIRTRPPRLPRPRPRPFGNPRP	0.101
RRIRDRPPRLPRPRPRPHCHPRP	-0.276

Sequence	shrunken log2 fold change
RRIRHRPPRLPRPRPRPATGPRP	-0.276
RRIRARPPRLPRPRPRPSCMPRP	0.29
RRIRSRPPRLPRPRPRPSCAPRP	0.0589
RRIRPRPPRLPRPRPRPADTPRP	0.221
RRIRGRPPRLPRPRPRPATLPRP	0.393
RRIRFRPPRLPRPRPRPVKKPRP	0.166
RRIRYRPPRLPRPRPRPCREPRP	-0.152
RRIRDRPPRLPRPRPRPTGGPRP	0.166
RRIRTRPPRLPRPRPRPHIRPRP	-0.271
RRIRERPPRLPRPRPRPGPIPRP	0.0264
RRIRERPPRLPRPRPRPWVNPRP	-0.00303
RRIRHRPPRLPRPRPRPMIAPRP	-0.0185
RRIRNRPPRLPRPRPRPDGFPRP	-0.104
RRIRQRPPRLPRPRPRPSHCPRP	0.0811
RRIRVRPPRLPRPRPRPQAQPRP	0.173
RRIRQRPPRLPRPRPRPLHIPRP	-0.423
RRIRGRPPRLPRPRPRPGWLPRP	1.17
RRIRQRPPRLPRPRPRPKELPRP	-0.534
RRIRIRPPRLPRPRPRPHHKPRP	-1.18
RRIRARPPRLPRPRPRPRLEPRP	0.766
RRIRDRPPRLPRPRPRPRDDPRP	-0.0224
RRIRQRPPRLPRPRPRPVGCPRP	0.23
RRIRVRPPRLPRPRPRPFEIPRP	-0.486
RRIRGRPPRLPRPRPRPMQCPRP	-0.0159
RRIRTRPPRLPRPRPRPKKMPRP	0.0999

Reference: the supplement of paper PMC9112550, “Optimization of the antimicrobial peptide Bac7 by deep mutational scanning” (BMC Biology, 2022)
